Laboratory results as given in article doi:10.1101/2021.05.23.445342 (bioRxiv, 2021).

Experiments:
[1] = molecular target: T1, Calcineurin (human PPP3CA / PPP3R1 heterodimer) (human, UniProt Q08209 1-521; P63098 1-170); test: SPR; Biacore T200, 25 °C; biotin-Cys-AKAP constructs immobilised on an SA chip, Calcineurin as analyte; 10 mM PIPES pH 6.5, 150 mM NaCl, 0.05% Tween20; apparent Kd from fit of the response at the end of association vs concentration ('steady-state'); conditions: both partners purified
T1 construct: Calcineurin A subunit, human PPP3CA, from pET15b CnA CnB; Calcineurin B subunit, human PPP3R1, from pET15b CnA CnB; also called Cn; PP2B; source: E. coli BL21(DE3) or BL21 Star (DE3), purified (ammonium sulphate, Ni-NTA, Resource Q, S200 SEC)

[2] = molecular target: T1, Calcineurin (human PPP3CA / PPP3R1 …); test: ITC; ITC200, 25 °C; 250 µM AKAP5c or AKAP5c_(ILVF->SA) injected into 18.32 µM Calcineurin; 10 mM Tris/HCl pH 7.4, 150 mM NaCl, 5 mM DTT; 1-site model (average of two repeats) and 2-site model with fixed N = 1 (global fit); conditions: both partners purified

Binder	Kd [1]	Kd [2]	stoichiometry N [2]
Biotin-Cys-AKAP5c_(ILVF->SA) (domain or fragment, biotin (EZ-Link Maleimide-PEG2-Biotin) on the unique added N-terminal Cys, unique Cys added immediately after the GS of the thrombin or TEV site; AKAP5 (AKAP79), human, residues 300-427; all I, L, V and F residues of the three secondary sites mutated to S or A; A GS remnant of the protease site probably precedes the Cys; also called AKAP5c_(ILVF->SA) (on the SPR surface); source: E. coli BL21(DE3) or BL21 Star (DE3), purified (heat step, Ni-NTA, Resource Q), …) CVAEETKPKDTELSQESDFKENGITEEKSKSEESKRMEPIAIIITDTEISEFDVTKSKNVPKQASASAENEQVGVFANDNGFEDRTSEQYETASAETASSLVKNAAQSSAEQSANEMASDDNKINNLLQ	~600 nM	–	–
AKAP5c_(ILVF->SA) (domain or fragment, AKAP5 (AKAP79), human, residues 300-427; all I, L, V and F residues of the three secondary sites mutated to S or A; PIAIIIT site present; Generated by gene synthesis (GeneArt); 15N-labelled for NMR, unlabelled for ITC; also called AKAP_(ILVF->SA); source: E. coli BL21(DE3) or BL21 Star (DE3), purified (heat step, Ni-NTA, Resource Q)) VAEETKPKDTELSQESDFKENGITEEKSKSEESKRMEPIAIIITDTEISEFDVTKSKNVPKQASASAENEQVGVFANDNGFEDRTSEQYETASAETASSLVKNAAQSSAEQSANEMASDDNKINNLLQ	–	1500 nM	0.99 AKAP5c:Cn
